Changes are numbered by the printed parent chain. In names and notes the source's numbering stands.
Molecular target: T1, EsCas13d, nuclease-dead (Eubacterium siraeum, UniProt B0MS50, R295A;H300A;R849A;H854A)
T1 sequence: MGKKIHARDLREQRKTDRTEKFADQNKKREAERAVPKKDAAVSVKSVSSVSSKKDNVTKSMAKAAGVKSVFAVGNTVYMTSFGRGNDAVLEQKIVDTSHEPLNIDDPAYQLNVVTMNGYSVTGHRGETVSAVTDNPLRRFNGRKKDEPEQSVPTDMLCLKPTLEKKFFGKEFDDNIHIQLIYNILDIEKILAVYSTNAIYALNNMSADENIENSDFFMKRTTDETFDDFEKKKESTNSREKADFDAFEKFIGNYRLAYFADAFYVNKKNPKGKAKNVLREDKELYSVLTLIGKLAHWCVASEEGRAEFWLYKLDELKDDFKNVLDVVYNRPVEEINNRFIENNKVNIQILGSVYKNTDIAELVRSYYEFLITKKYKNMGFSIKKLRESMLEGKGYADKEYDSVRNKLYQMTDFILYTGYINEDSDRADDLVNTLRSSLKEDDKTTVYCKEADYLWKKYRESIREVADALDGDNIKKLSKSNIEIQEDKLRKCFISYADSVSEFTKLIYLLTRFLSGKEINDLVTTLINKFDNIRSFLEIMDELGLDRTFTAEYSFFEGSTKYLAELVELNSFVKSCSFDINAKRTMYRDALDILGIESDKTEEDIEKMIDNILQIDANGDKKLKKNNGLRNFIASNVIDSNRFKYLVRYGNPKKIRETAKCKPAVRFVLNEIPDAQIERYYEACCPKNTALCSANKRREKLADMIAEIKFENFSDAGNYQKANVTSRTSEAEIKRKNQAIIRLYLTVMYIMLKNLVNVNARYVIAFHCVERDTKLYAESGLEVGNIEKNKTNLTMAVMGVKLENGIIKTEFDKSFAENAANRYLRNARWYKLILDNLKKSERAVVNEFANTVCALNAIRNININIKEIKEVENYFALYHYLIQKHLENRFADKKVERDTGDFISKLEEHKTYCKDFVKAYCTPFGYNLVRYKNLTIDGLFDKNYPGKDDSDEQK
Experiment: crRNA (strand 1, pre-loaded); Mg2+; 40 mM Tris-HCl pH 7.5, 150 mM NaCl, 6 mM MgCl2, 1 mM DTT, 0.1% Tween-20, 0.2 mg/ml BSA; 25 C; 10 min per concentration, then washed
Conditions: tags: His6-TwinStrep-SUMO cleaved; N-terminal SNAP kept (SNAP-Surface 488); label: 3' end held by stalled T7 RNA polymerase

B1: target 1 C4G,A18U (mixed)
RNA 1: CACCCGUGCAAAAAUGCAGGGGUCUAAAACUGAGCGGAUAACCUCUCUAUGG
RNA 2: GGGAAUGGAUCCACAUCUACGAAUUCGUACCAUUGAGAGGUUAUCCGGUCACCGAGAUCGGAAGAGCACACGU
Kd: 22.7 ± 2.4 nM

B2: target 1 insG 3' of 9,insC 3' of 3 (mixed)
RNA 1: B1 RNA 1
RNA 2: GGGAAUGGAUCCACAUCUACGAAUUCGUACCAUAGAGAGGUUAGUCCGCUCCACCGAGAUCGGAAGAGCACACGU
Kd: 15.9 ± 0.9 nM

B3: target 1 insC 3' of 8,insU 3' of 2 (mixed)
RNA 1: B1 RNA 1
RNA 2: B2 RNA 2 with G44U, U45C, C52U
Kd: 21.3 ± 2.8 nM

B4: target 1 U3C,A14C (mixed)
RNA 1: B1 RNA 1
RNA 2: B1 RNA 2 with U34A, A38C, G48C, U49C
Kd: 84 ± 18 nM

B5: target 1 insG 3' of 21,insU 3' of 7 (mixed)
RNA 1: B1 RNA 1
RNA 2: GGGAAUGGAUCCACAUCUACGAAUUCGUACCGAUAGAGAGGUUAUCUCGCUCACCGAGAUCGGAAGAGCACACGU
Kd: 73 ± 9 nM

B6: target 1 G13U (mixed)
RNA 1: B1 RNA 1
RNA 2: B1 RNA 2 with U34A, G39U, G48C
Kd: 34 ± 4 nM

B7: target 1 A9G,A16G (mixed)
RNA 1: B1 RNA 1
RNA 2: B1 RNA 2 with U34A, A36G, A43G, G48C
Kd: 37 ± 4 nM

B8: target 1 C6G,G17C (mixed)
RNA 1: B1 RNA 1
RNA 2: B1 RNA 2 with U34A, G35C, C46G, G48C
Kd: ~41 nM

B9: target 1 insA 3' of 7,insA 3' of 2 (mixed)
RNA 1: B1 RNA 1
RNA 2: B2 RNA 2 with G44U, U45C, C46A, C52A
Kd: 7.2 ± 0.8 nM

B10: target 1 insA 3' of 11,insG 3' of 7 (mixed)
RNA 1: B1 RNA 1
RNA 2: B2 RNA 2 with U42A, A43U, G44A, C47G, G48C, C49G, U50C, C51U
Kd: 16.7 ± 0.7 nM

B11: target 1 insU 3' of 13,insA 3' of 6 (mixed)
RNA 1: B1 RNA 1
RNA 2: B2 RNA 2 with G40U, U41G, A43U, G44A, G48A, C49G, U50C, C51U
Kd: 33.9 ± 3.2 nM

B12: target 1 insA 3' of 21,insC 3' of 5 (mixed)
RNA 1: B1 RNA 1
RNA 2: B5 RNA 2 with G32A, U47C, C48G, G49C
Kd: 45 ± 7 nM

B13: target 1 insC 3' of 19,insC 3' of 5 (mixed)
RNA 1: B1 RNA 1
RNA 2: B5 RNA 2 with G32A, A33U, U34C, U47C, C48G, G49C
Kd: 75 ± 21 nM

B14: target 1 del8,del20 (mixed)
RNA 1: B1 RNA 1
RNA 2: GGGAAUGGAUCCACAUCUACGAAUUCGUACCUAGAGAGGUUACCGCUCACCGAGAUCGGAAGAGCACACGU
Kd: 74 ± 9 nM

B15: target 1 A1U,G13U (mixed)
RNA 1: B1 RNA 1
RNA 2: B1 RNA 2 with U34A, G39U, G48C, A51U
Kd: 49 ± 10 nM
